According to paper PMC4390240 (PLoS ONE, 2015):
Where “and” joins values, the source holds several entries; their conditions need not be identical. Identical values can stand only once.

Assays:
[1] = molecular target: the molecule itself; experiment: SEC; gel chromatography (Superdex 75) at 4°C in 50 mM potassium phosphate buffer, pH 7.0, after addition of 80% (v/v) ethanol to 1 mM oxidized monomeric protein, lyophilization and resolvation with buffer
[2] = molecular target: the molecule itself; experiment: differential scanning calorimetry; oxidized dimer, 100 μM (heme unit), scan rate 1°C/min, 50 mM potassium phosphate buffer, pH 7.0; dimer to monomers

B1: Pseudomonas aeruginosa cytochrome c 551, wild type (natural protein, UniProt P00099 23-104, looked up)
chain: EDPEVLFKNKGCVACHAIDTKMVGPAYKDVAAKFAGQAGAEAELAQRIKNGSQGVWGPIPMPPNAVSDDEAQTLAKWVLSQK
modifications: heme attached covalently to two Cys residues (heme-linked Cys12 and Cys15); His16 and Met61 coordinated to the heme iron; oxidized
notes: residues printed from Glu1; source: E. coli JCB387, purified (oxidized)
stoichiometry N [1]: 2 and 3 and 4
dH of dissociation of the dimer to monomers [2]: ~0 kcal/mol
